B1: Paired immunoglobulin-like type 2 receptor alpha (Homo sapiens), Q9UKJ1 (parent)
chain: MGRPLLLPLLPLLLPPAFLQPSGSTGSGPSYLYGVTQPKHLSASMGGSVEIPFSFYYPWELATAPDVRISWRRGHFHRQSFYSTRPPSIHKDYVNRLFLNWTEGQKSGFLRISNLQKQDQSVYFCRVELDTRSSGRQQWQSIEGTKLSITQAVTTTTQRPSSMTTTWRLSSTTTTTGLRVTQGKRRSDSWHISLETAVGVAVAVTVLGIMILGLICLLRWRRRKGQQRTKATTPAREPFQNTEEPYENIRNEGQNTDPKLNPKDDGIVYASLALSSSTSPRAPPSHRPLKSPQNETLYSVLKA

Variants of: B1
Conditions: with ptn6_human PTPN6, P29350
Chain of ptn6_human PTPN6, P29350 (P29350 whole entry): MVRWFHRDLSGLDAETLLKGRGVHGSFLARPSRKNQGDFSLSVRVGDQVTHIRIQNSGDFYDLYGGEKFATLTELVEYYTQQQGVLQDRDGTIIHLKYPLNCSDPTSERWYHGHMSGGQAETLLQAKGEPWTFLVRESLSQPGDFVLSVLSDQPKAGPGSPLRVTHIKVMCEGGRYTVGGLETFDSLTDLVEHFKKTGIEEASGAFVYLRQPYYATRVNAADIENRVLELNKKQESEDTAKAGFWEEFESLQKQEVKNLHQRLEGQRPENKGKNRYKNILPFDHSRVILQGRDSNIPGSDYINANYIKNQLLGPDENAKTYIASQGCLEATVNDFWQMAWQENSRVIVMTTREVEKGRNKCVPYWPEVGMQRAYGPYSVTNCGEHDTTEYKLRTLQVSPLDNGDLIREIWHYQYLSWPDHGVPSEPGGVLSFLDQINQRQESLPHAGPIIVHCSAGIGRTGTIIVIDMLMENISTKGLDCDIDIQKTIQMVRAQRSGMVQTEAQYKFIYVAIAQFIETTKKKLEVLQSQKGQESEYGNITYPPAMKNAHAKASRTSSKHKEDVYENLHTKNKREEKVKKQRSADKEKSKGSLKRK

Row | Variant | effect of a mutation on the interaction
1 | Y269F | decreasing interaction
2 | Y269F;Y298F | decreasing interaction

Source: IntAct's records for PubMed 10660620
